Assays:
[1] = molecular target: MC4R WT; assay: SPR; steady state affinity, 25 C
[2] = molecular target: MC4R WT; assay: SPR; 1:1 kinetic, 25 C

Kd [1] [nM]	Kd [2] [nM]	Substance
5.74	0.00837	SHU 9119
9.72	35.3	Setmelanotide
313	155	a-MSH

Source: patent publication US20260209311A1, “MODIFIED G PROTEIN COUPLED RECEPTOR AND USE THEREOF” (ALPHELIX BIOTECH CO., LTD., priority 2023, published 2026)
